biological target: T1, RNF213-TurboID (Homo sapiens (Human), UniProt Q63HN8 1-5207); experiment: TurboID proximity biotinylation, streptavidin recovery, MS, SAINT express
T1 construct: Recombined into HeLa FlpIn-TRex RNF213-KO cells; proximity-labelling bait; also called C-Turbo; 3×-FLAG-RNF213-TurboID; not shown: 3×-FLAG tag; TurboID biotin ligase at the C-terminus
Text: Proteins were ranked as potential binding partners by using the SAINT express algorithm³⁶ Immunoblotting (FIG. 9A) and silver staining (FIG. 9B) confirmed that similar amounts of each sample were submitted for analysis. Relatively few proteins labelled by N-Turbo were labelled to an extent greater than their labeling by Control-Turbo (FIG. 9C). […] Among the other top candidates were the major K63-deubiquitinase and NF-κB regulator CYLD and its interacting protein SPATA2 (FIG. 2B, orange-colored arrows). […] Other top C-Turbo interactors included proteins involved in VEGF signaling, which is induced in hypoxia (FLII, MYOF^{39,40}), inflammation and atherosclerosis (MAP4K4, SPTLC1^{41,42}), lipotoxicity (SPTLC1, ALDH1B1^{43,44}), ischemia response (CPEB4⁴⁵), and stroke (SARS2⁴⁶). Top N-Turbo interactors included CYP51A1, which plays a crucial role in cholesterol metabolism and atherosclerosis⁴⁷.
Cells were cultured in standard media but with 10% tetracycline (Tet)-free FBS (Clonetech) for at least 1 week. Tet-free/biotin-free FBS was generated by incubating Tet-free FBS with sterile streptavidin beads overnight followed by centrifugation to remove the beads. N-Turbo, C-Turbo, and Turbo proteins were induced by adding 1 μg/ml Dox to cells for 36 hours. For the last ten min. of incubation, 500 μM of biotin was added to the medium. Labelling reactions was terminated by removing the medium and adding ice-cold PBS to plates, which were kept on ice. Lysates were collected in RIPA buffer without Na-deoxycholate, and biotin-labelled proteins were collected by incubating with high-capacity streptavidin agarose beads for 4 hours at 4° C.

T1 sequence (Q63HN8 whole entry N1045D): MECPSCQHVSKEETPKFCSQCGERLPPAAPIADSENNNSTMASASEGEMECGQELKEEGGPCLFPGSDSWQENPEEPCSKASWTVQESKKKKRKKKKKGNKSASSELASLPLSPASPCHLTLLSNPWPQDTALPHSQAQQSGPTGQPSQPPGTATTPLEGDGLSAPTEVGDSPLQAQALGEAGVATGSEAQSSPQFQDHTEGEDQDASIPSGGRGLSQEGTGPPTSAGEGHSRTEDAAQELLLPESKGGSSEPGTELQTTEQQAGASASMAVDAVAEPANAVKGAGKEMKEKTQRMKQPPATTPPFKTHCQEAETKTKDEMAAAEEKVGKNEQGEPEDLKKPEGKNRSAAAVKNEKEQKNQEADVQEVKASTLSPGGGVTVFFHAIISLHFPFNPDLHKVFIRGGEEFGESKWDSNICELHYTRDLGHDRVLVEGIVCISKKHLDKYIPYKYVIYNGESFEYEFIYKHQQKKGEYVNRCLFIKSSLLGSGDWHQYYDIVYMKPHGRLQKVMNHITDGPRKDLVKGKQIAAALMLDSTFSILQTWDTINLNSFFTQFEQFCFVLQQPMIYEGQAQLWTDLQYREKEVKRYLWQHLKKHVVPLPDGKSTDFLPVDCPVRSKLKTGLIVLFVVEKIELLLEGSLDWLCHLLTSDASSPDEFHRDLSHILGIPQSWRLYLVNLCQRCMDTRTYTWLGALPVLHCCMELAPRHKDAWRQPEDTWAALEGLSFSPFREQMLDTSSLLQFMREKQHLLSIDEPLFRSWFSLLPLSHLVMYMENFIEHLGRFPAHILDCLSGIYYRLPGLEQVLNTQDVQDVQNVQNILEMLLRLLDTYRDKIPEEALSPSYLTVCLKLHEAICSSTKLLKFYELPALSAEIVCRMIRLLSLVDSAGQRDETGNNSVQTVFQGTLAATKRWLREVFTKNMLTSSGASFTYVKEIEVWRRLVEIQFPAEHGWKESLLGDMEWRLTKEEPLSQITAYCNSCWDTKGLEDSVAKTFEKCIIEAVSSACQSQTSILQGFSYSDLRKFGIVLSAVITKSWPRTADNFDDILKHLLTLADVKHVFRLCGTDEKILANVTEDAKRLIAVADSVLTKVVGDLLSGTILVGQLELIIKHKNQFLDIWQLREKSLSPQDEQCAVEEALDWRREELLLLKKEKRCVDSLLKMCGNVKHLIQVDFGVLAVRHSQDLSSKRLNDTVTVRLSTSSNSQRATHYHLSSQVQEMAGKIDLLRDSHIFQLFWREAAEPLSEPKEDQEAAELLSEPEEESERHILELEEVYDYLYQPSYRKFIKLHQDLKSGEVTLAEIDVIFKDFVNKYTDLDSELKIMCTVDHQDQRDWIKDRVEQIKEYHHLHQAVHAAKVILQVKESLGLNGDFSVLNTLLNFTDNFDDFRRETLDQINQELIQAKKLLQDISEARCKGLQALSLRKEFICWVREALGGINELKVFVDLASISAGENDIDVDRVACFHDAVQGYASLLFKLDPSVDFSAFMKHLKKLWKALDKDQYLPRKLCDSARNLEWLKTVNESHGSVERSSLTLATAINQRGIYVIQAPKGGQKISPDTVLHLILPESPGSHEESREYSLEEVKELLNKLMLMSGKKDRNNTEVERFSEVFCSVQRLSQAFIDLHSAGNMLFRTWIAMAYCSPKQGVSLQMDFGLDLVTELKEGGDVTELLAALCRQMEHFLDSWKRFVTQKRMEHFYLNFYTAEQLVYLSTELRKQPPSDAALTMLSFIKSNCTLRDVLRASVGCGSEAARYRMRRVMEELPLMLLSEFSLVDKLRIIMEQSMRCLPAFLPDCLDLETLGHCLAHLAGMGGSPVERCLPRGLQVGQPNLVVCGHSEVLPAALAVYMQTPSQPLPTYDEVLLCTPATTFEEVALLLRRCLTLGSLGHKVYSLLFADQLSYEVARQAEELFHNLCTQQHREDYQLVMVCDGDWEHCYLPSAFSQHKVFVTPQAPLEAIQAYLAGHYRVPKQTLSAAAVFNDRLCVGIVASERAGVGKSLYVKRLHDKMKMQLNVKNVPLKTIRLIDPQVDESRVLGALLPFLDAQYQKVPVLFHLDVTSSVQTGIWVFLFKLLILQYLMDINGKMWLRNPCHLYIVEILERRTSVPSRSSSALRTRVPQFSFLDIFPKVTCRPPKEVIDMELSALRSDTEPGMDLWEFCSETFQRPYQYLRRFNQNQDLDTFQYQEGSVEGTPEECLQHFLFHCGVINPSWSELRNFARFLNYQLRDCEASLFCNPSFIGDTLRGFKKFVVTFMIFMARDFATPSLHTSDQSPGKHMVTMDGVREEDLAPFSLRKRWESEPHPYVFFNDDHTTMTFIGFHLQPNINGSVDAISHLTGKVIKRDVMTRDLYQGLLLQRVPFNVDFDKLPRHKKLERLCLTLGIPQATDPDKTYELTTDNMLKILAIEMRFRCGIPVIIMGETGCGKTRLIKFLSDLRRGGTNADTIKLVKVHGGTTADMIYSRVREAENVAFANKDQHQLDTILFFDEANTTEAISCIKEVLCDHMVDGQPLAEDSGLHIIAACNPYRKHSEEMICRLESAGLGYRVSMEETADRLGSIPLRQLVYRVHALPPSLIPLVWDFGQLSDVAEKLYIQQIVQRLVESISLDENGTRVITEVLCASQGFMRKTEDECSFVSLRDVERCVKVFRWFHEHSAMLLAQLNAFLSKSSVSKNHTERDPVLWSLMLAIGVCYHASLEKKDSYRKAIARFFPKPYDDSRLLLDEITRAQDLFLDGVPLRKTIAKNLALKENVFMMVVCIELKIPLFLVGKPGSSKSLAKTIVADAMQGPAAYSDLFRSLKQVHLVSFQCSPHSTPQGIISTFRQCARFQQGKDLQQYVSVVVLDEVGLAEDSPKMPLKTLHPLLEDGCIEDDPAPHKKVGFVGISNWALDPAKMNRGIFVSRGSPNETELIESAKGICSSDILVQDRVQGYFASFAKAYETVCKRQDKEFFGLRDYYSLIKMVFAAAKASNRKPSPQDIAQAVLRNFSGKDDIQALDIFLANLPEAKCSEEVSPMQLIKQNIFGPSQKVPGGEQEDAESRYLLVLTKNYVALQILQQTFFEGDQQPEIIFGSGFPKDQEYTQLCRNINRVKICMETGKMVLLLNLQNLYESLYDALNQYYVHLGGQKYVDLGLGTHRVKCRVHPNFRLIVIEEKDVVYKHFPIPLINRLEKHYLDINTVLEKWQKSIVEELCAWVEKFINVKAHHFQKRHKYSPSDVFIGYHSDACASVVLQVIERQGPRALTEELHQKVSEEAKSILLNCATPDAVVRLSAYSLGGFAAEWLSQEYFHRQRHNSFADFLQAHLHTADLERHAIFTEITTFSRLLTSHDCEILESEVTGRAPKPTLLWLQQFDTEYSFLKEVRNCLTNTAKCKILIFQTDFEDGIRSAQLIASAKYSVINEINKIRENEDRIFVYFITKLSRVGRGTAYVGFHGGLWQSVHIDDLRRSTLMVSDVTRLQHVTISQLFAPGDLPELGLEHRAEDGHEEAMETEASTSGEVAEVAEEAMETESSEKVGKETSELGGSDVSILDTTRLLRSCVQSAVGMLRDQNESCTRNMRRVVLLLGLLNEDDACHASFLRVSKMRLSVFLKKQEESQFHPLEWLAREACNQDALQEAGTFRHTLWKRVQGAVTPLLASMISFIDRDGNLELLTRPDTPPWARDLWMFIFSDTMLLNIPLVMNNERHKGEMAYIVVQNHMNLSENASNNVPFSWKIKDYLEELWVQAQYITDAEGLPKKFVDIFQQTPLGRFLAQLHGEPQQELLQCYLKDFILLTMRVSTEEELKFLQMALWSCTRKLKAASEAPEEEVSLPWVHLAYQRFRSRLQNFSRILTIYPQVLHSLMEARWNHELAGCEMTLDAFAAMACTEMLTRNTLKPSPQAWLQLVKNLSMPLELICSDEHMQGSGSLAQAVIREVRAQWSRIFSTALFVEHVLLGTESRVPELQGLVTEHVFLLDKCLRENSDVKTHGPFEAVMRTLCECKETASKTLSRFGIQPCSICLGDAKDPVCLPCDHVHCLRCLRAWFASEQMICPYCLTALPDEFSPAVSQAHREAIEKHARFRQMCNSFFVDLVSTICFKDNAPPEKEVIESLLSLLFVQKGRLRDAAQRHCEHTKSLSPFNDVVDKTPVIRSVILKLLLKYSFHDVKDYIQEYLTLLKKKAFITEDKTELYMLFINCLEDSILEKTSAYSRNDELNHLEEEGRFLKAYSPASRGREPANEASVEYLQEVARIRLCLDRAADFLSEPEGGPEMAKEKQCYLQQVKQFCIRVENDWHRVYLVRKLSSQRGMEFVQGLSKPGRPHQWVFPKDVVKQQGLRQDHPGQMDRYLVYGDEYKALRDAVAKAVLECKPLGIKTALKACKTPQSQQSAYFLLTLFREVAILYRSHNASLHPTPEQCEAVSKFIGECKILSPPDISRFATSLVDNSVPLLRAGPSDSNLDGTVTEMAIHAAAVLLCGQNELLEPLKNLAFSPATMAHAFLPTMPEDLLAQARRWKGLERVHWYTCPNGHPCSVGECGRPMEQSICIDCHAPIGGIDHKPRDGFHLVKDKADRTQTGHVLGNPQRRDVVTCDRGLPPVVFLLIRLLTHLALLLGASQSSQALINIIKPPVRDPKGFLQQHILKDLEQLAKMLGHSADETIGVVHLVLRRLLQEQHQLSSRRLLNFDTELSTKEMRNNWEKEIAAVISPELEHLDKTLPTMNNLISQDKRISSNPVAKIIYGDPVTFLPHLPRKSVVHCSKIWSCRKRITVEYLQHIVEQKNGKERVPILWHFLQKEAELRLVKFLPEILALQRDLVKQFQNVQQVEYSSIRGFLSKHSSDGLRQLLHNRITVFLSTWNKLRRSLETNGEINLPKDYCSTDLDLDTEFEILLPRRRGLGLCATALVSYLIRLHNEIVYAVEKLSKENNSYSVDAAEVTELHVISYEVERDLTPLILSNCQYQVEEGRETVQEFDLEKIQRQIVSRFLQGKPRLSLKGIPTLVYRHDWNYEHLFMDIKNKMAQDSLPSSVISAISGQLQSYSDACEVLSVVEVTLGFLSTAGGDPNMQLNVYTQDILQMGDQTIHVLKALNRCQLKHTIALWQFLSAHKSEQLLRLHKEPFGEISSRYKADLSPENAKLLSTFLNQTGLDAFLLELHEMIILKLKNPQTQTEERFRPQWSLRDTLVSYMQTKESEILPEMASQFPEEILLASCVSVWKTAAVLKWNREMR

Binder | binding result
SARS2 (enzyme, Homo sapiens, UniProt Q9NP81 35-518, looked up, Endogenous protein found by proximity labelling/MS; also called Serine -- tRNA ligase, mitochondrial) TTEKRNRNLLYEYAREGYSALPQLDIERFCACPEEAAHALELRKGELRSADLPAIISTWQELRQLQEQIRSLEEEKAAVTEAVRALLANQDSGEVQQDPKYQGLRARGREIRKELVHLYPREAQLEEQFYLQALKLPNQTHPDVPVGDESQARVLHMVGDKPVFSFQPRGHLEIGEKLDIIRQKRLSHVSGHRSYYLRGAGALLQHGLVNFTFNKLLRRGFTPMTVPDLLRGAVFEGCGMTPNANPSQIYNIDPARFKDLNLAGTAEVGLAGYFMDHTVAFRDLPVRMVCSSTCYRAETNTGQEPRGLYRVHHFTKVEMFGVTGPGLEQSSQLLEEFLSLQMEILTELGLHFRVLDMPTQELGLPAYRKFDIEAWMPGRGRFGEVTSASNCTDFQSRRLHIMFQTEAGELQFAHTVNATACAVPRLLIALLESNQQKDGSVLVPPALQSYLGTDRITAPTHVPLQYIGPNQPRKPGLPGQPAVS | binds
SPTLC1 (enzyme, Homo sapiens, UniProt O15269 1-473, looked up, Endogenous protein found by proximity labelling/MS; also called Serine palmitoyltransferase 1) MATATEQWVLVEMVQALYEAPAYHLILEGILILWIIRLLFSKTYKLQERSDLTVKEKEELIEEWQPEPLVPPVPKDHPALNYNIVSGPPSHKTVVNGKECINFASFNFLGLLDNPRVKAAALASLKKYGVGTCGPRGFYGTFDVHLDLEDRLAKFMKTEEAIIYSYGFATIASAIPAYSKRGDIVFVDRAACFAIQKGLQASRSDIKLFKHNDMADLERLLKEQEIEDQKNPRKARVTRRFIVVEGLYMNTGTICPLPELVKLKYKYKARIFLEESLSFGVLGEHGRGVTEHYGINIDDIDLISANMENALASIGGFCCGRSFVIDHQRLSGQGYCFSASLPPLLAAAAIEALNIMEENPGIFAVLKEKCGQIHKALQGISGLKVVGESLSPAFHLQLEESTGSREQDVRLLQEIVDQCMNRSIALTQARYLEKEEKCLPPPSIRVVVTVEQTEEELERAASTIKEVAQAVLL | binds
MAP4K4 (enzyme, Homo sapiens, UniProt O95819-4 2-1165, looked up, Endogenous protein found by proximity labelling/MS) ANDSPAKSLVDIDLSSLRDPAGIFELVEVVGNGTYGQVYKGRHVKTGQLAAIKVMDVTEDEEEEIKLEINMLKKYSHHRNIATYYGAFIKKSPPGHDDQLWLVMEFCGAGSITDLVKNTKGNTLKEDWIAYISREILRGLAHLHIHHVIHRDIKGQNVLLTENAEVKLVDFGVSAQLDRTVGRRNTFIGTPYWMAPEVIACDENPDATYDYRSDLWSCGITAIEMAEGAPPLCDMHPMRALFLIPRNPPPRLKSKKWSKKFFSFIEGCLVKNYMQRPSTEQLLKHPFIRDQPNERQVRIQLKDHIDRTRKKRGEKDETEYEYSGSEEEEEEVPEQEGEPSSIVNVPGESTLRRDFLRLQQENKERSEALRRQQLLQEQQLREQEEYKRQLLAERQKRIEQQKEQRRRLEEQQRREREARRQQEREQRRREQEEKRRLEELERRRKEEEERRRAEEEKRRVEREQEYIRRQLEEEQRHLEVLQQQLLQEQAMLLHDHRRPHPQHSQQPPPPQQERSKPSFHAPEPKAHYEPADRAREVPVRTTSRSPVLSRRDSPLQGSGQQNSQAGQRNSTSIEPRLLWERVEKLVPRPGSGSSSGSSNSGSQPGSHPGSQSGSGERFRVRSSSKSEGSPSQRLENAVKKPEDKKEVFRPLKPAGEVDLTALAKELRAVEDVRPPHKVTDYSSSSEESGTTDEEDDDVEQEGADESTSGPEDTRAASSLNLSNGETESVKTMIVHDDVESEPAMTPSKEGTLIVRQTQSASSTLQKHKSSSSFTPFIDPRLLQISPSSGTTVTSVVGFSCDGMRPEAIRQDPTRKGSVVNVNPTNTRPQSDTPEIRKYKKRFNSEILCAALWGVNLLVGTESGLMLLDRSGQGKVYPLINRRRFQQMDVLEGLNVLVTISGKKDKLRVYYLSWLRNKILHNDPEVEKKQGWTTVGDLEGCVHYKVVKYERIKFLVIALKSSVEVYAWAPKPYHKFMAFKSFGELVHKPLLVDLTVEEGQRLKVIYGSCAGFHAVDVDSGSVYDIYLPTHVRKNPHSMIQCSIKPHAIIILPNTDGMELLVCYEDEGVYVNTYGRITKDVVLQWGEMPTSVAYIRSNQTMGWGEKAIEIRSVETGHLDGVFMHKRAQRLKFLCERNDKVFFASVRSGGSSQVYFMTLGRTSLLSW | binds
FLII (other, Homo sapiens, UniProt Q13045-2 1-1214, looked up, Endogenous protein found by proximity labelling/MS; also called Protein flightless-1 homolog) MEATGVLPFVRGVDLSGNDFKGGYFPENVKAMTSLRWLKLNRTGLCYLPEELAALQKLEHLSVSHNNLTTLHGELSSLPSLRAIVARANSLKNSGVPDDIFKLDDLSVLDLSHNQLTECPRELENAKNMLVLNLSHNRQLPAMTALQTLHLRSTQRTQSNLPTSLEGLSNLADVDLSCNDLTRVPECLYTLPSLRRLNLSSNQITELSLCIDQWVHVETLNLSRNQLTSLPSAICKLSKLKKLYLNSNKLDFDGLPSGIGKLTNLEEFMAANNNLELVPESLCRCPKLRKLVLNKNHLVTLPEAIHFLTEIEVLDVRENPNLVMPPKPADRAAEWYNIDFSLQNQLRLAGASPATVAAAAAGSGPKDPMARKMRLRRRKDSAQDDQAKQVLKGMSDVAQEKNKKQEESADARAPSGKVRRWDQGLEKPRLDYSEFFTEDVGQLPGLTIWQIENFVPVLVEEAFHGKFYEADCYIVLKTFLDDSGSLNWEIYYWIGGEATLDKKACSAIHAVNLRNYLGAECRTVREEMGDESEEFLQVFDNDISYIEGGTASGFYTVEDTHYVTRMYRVYGKKNIKLEPVPLKGTSLDPRFVFLLDRGLDIYVWRGAQATLSSTTKARLFAEKINKNERKGKAEITLLVQGQELPEFWEALGGEPSEIKKHVPEDFWPPQPKLYKVGLGLGYLELPQINYKLSVEHKQRPKVELMPRMRLLQSLLDTRCVYILDCWSDVFIWLGRKSPRLVRAAALKLGQELCGMLHRPRHATVSRSLEGTEAQVFKAKFKNWDDVLTVDYTRNAEAVLQSPGLSGKVKRDAEKKDQMKADLTALFLPRQPPMSLAEAEQLMEEWNEDLDGMEGFVLEGKKFARLPEEEFGHFYTQDCYVFLCRYWVPVEYEEEEKKEDKEEKAEGKEGEEATAEAEEKQPEEDFQCIVYFWQGREASNMGWLTFTFSLQKKFESLFPGKLEVVRMTQQQENPKFLSHFKRKFIIHRGKRKAVQGAQQPSLYQIRTNGSALCTRCIQINTDSSLLNSEFCFILKVPFESEDNQGIVYAWVGRASDPDEAKLAEDILNTMFDTSYSKQVINEGEEPENFFWVGIGAQKPYDDDAEYMKHTRLFRCSNEKGYFAVTEKCSDFCQDDLADDDIMLLDNGQEVYMWVGTQTSQVEIKLSLKACQVYIQHMRSKEHERPRRLRLVRKGNEQHAFTRCFHAWSAFCKALA | binds
CPEB4 (other, Homo sapiens, UniProt Q17RY0-2 1-712, looked up, Endogenous protein found by proximity labelling/MS) MGDYGFGVLVQSNTGNKSAFPVRFHPHLQPPHHHQNATPSPAAFINNNTAANGSSAGSAWLFPAPATHNIQDEILGSEKAKSQQQEQQDPLEKQQLSPSPGQEAGILPETEKAKSEENQGDNSSENGNGKEKIRIESPVLTGFDYQEATGLGTSTQPLTSSASSLTGFSNWSAAIAPSSSTIINEDASFFHQGGVPAASANNGALLFQNFPHHVSPGFGGSFSPQIGPLSQHHPHHPHFQHHHSQHQQQRRSPASPHPPPFTHRNAAFNQLPHLANNLNKPPSPWSSYQSPSPTPSSSWSPGGGGYGGWGGSQGRDHRRGLNGGITPLNSISPLKKNFASNHIQLQKYARPSSAFAPKSWMEDSLNRADNIFPFPDRPRTFDMHSLESSLIDIMRAENDTIKARTYGRRRGQSSLFPMEDGFLDDGRGDQPLHSGLGSPHCFSHQNGERVERYSRKVFVGGLPPDIDEDEITASFRRFGPLIVDWPHKAESKSYFPPKGYAFLLFQDESSVQALIDACIEEDGKLYLCVSSPTIKDKPVQIRPWNLSDSDFVMDGSQPLDPRKTIFVGGVPRPLRAVELAMIMDRLYGGVCYAGIDTDPELKYPKGAGRVAFSNQQSYIAAISARFVQLQHGEIDKRVEVKPYVLDDQLCDECQGARCGGKFAPFFCANVTCLQYYCEYCWAAIHSRAGREFHKPLVKEGGDRPRHISFRWN | binds
ALDH1B1 (enzyme, Homo sapiens, UniProt P30837 18-517, looked up, Endogenous protein found by proximity labelling/MS; also called Aldehyde dehydrogenase X, mitochondrial) RYSSAAALPSPILNPDIPYNQLFINNEWQDAVSKKTFPTVNPTTGEVIGHVAEGDRADVDRAVKAAREAFRLGSPWRRMDASERGRLLNRLADLVERDRVYLASLETLDNGKPFQESYALDLDEVIKVYRYFAGWADKWHGKTIPMDGQHFCFTRHEPVGVCGQIIPWNFPLVMQGWKLAPALATGNTVVMKVAEQTPLSALYLASLIKEAGFPPGVVNIITGYGPTAGAAIAQHVDVDKVAFTGSTEVGHLIQKAAGDSNLKRVTLELGGKSPSIVLADADMEHAVEQCHEALFFNMGQCCCAGSRTFVEESIYNEFLERTVEKAKQRKVGNPFELDTQQGPQVDKEQFERVLGYIQLGQKEGAKLLCGGERFGERGFFIKPTVFGGVQDDMRIAKEEIFGPVQPLFKFKKIEEVVERANNTRYGLAAAVFTRDLDKAMYFTQALQAGTVWVNTYNIVTCHTPFGGFKESGNGRELGEDGLKAYTEVKTVTIKVPQKNS | binds

Reference: patent publication US20250025478A1 (published 2025)
